In patent publication US20220056125A1 (CEPHALON, published 2022):
Positions count from the first letter of the chain named.

T1: human PAR-1 (human, UniProt P25116 22-425)
T1 construct: also called huPAR-1
T1 sequence: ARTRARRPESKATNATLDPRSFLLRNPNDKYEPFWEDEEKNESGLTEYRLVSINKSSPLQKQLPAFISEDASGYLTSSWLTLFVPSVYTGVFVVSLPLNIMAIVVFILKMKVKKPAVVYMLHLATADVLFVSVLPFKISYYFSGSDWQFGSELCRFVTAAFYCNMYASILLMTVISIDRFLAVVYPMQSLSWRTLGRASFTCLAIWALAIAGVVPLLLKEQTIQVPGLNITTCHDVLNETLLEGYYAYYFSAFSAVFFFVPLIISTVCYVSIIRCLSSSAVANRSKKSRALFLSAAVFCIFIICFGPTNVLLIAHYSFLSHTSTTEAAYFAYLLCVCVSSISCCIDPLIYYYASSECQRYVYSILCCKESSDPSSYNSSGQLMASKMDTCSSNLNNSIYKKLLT

T2: human PAR-2 (human, UniProt P55085 26-397)
T2 sequence: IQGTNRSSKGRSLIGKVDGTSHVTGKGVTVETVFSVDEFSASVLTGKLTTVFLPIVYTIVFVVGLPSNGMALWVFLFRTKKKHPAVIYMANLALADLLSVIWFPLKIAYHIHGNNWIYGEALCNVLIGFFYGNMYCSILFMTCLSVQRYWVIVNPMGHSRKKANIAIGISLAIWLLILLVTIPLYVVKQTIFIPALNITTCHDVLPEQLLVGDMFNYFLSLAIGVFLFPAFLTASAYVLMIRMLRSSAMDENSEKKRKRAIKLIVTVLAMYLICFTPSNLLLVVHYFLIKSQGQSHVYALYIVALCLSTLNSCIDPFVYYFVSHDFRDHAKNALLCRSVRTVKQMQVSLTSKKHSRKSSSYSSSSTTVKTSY

B1: Ab192 (antibody, human IgG4, V domains shown)
VH: QVQLQQPGTELVKPGASVKLSCKASGYTFTSYWMHWIKQRPGQGLEWIGNINPSSGGTNYNEKFKTKATLTVDKSSSTAYMQLSSLTSEDSAVYYCAGEAYSNYVAWFAYWGQGTLVTVSS
VL: ENVLTQSPAIMSASLGEKVTMSCRASSSVNYMYWYQQKSDASPKLWIYYTSNLAPGVPARFSGSGSGTSYSLTISSMEGEDAATYYCQQFTTSPYTFGGGTKLEIK
notes: also called Anti-PAR-2 antibody # 192
B2: Ab140 (antibody, human IgG4, V domains shown)
VH: EVQLVESGGGLVQPKGSLKLSCAASGFTFNSYAMHWVRQAPGKGLEWVACIRSKSSYYATYYADSVKDRFTISRHDSQSMLYLQMNNLKTEDTAMYYCVREDYYGSSYDYWGQGTTLTVSS
VL: QIVLTQSPAIMSASLGERVTMTCTASSSVSSSYLHWYQQKPGSSPKLWIYATSNLASGVPARFSGSGSGTSYSLTISSMEAEDAATYYCHQYHRSPLTFGAGTKLELK
notes: also called Anti-PAR-2 antibody # 140
B3: Ab189 (antibody, human IgG4, V domains shown)
VH: B2 VH with S31T, C50R, S55T, S56T, Y57N, H75D, M85I, N86S, Y108L
VL: B2 VL with S30I, Y50F, A51S, S78T
notes: also called Anti-PAR-2 antibody # 189
B4: P24E278 (antibody, human IgG4 S228P, kappa, V domains shown)
VH: QVQLVQSGAEVKKPGSSVKVSCKASGFSLSSYGVIWVRQAPGQGLEWMGVIWGNGNTYYAQKFQGRVTITADESTSTAYMELSSLRSEDTAVYYCARWRGYKDYPFDYWGQGTLVTVSS
VL: EIVLTQSPATLSLSPGERATLSCKASQNIYKYLDWYQQKPGQAPRLLIYNTNSLATGIPARFSGSGSGRDFTLTISSLEPEDFAVYYCLQHNSGWTFGGGTKVEIKR
B5: P24E285 (antibody, human IgG4 S228P, kappa, V domains shown)
VH: B4 VH with S30N, G33A
VL: B4 VL with I29V
B6: P24E286 (antibody, human IgG4 S228P, kappa, V domains shown)
VH: B4 VH with S30N, G33A
VL: B4 VL with T51A
B7: P24E288 (antibody, human IgG4 S228P, kappa, V domains shown)
VH: B4 VH with S30N, V34I
VL: B4 VL
B8: P24E293 (antibody, human IgG4 S228P, kappa, V domains shown)
VH: B4 VH with S30N, G33A, V34I, I35S
VL: B4 VL
B9: P24E301 (antibody, human IgG4 S228P, kappa, V domains shown)
VH: B4 VH with G33A, V34I, I35S, R99K
VL: B4 VL with Y32W
B10: P24E295 (antibody, human IgG4 S228P, kappa, V domains shown)
VH: B4 VH with S30N, G33A, V34I, I35S
VL: B4 VL with I29V
B11: P24E280 (antibody, human IgG4 S228P, kappa, V domains shown)
VH: B4 VH
VL: B4 VL with I29V
B12: P24E297 (antibody, human IgG4 S228P, kappa, V domains shown)
VH: B4 VH with S30N, G33A, V34I, I35S
VL: B4 VL with L54R
B13: P24E287 (antibody, human IgG4 S228P, kappa, V domains shown)
VH: B4 VH with S30N, G33A
VL: B4 VL with L54R
B14: P24E294 (antibody, human IgG4 S228P, kappa, V domains shown)
VH: B4 VH with S30N, G33A, V34I, I35S
VL: B4 VL with K24R
B15: P24E283 (antibody, human IgG4 S228P, kappa, V domains shown)
VH: B4 VH with S30N, G33A
VL: B4 VL
B16: P24E279 (antibody, human IgG4 S228P, kappa, V domains shown)
VH: B4 VH
VL: B4 VL with K24R
B17: P24E281 (antibody, human IgG4 S228P, kappa, V domains shown)
VH: B4 VH
VL: B4 VL with T51A
B18: P24E290 (antibody, human IgG4 S228P, kappa, V domains shown)
VH: B4 VH with S30N, V34I
VL: B4 VL with I29V
B19: P24E889 (antibody, human IgG4 S228P, kappa, V domains shown)
VH: B4 VH with G33A, V34I, I35S
VL: B4 VL with K24R, Y32W, T51A, N52Y, L89Q
B20: P24E291 (antibody, human IgG4 S228P, kappa, V domains shown)
VH: B4 VH with S30N, V34I
VL: B4 VL with T51A
B21: P24E298 (antibody, human IgG4 S228P, kappa, V domains shown)
VH: B4 VH with G33A, V34I, I35S
VL: B4 VL with Y32W
B22: P24E794 (antibody, human IgG4 S228P, kappa, V domains shown)
VH: B4 VH with G33A, V34I, I35S
VL: B4 VL with K24R, I29V, Y32W, T51A, N52Y, L54R, L89Q
B23: P24E296 (antibody, human IgG4 S228P, kappa, V domains shown)
VH: B4 VH with S30N, G33A, V34I, I35S
VL: B4 VL with T51A
B24: P24E284 (antibody, human IgG4 S228P, kappa, V domains shown)
VH: B4 VH with S30N, G33A
VL: B4 VL with K24R
B25: P24E914 (antibody, human IgG4 S228P, kappa, V domains shown)
VH: B4 VH with G33A, V34I, I35S, R99K
VL: B4 VL with K24R, Y32W, T51A, N52Y, L89Q
B26: P24E282 (antibody, human IgG4 S228P, kappa, V domains shown)
VH: B4 VH
VL: B4 VL with L54R
B27: P24E292 (antibody, human IgG4 S228P, kappa, V domains shown)
VH: B4 VH with S30N, V34I
VL: B4 VL with L54R
B28: P24E300 (antibody, human IgG4 S228P, kappa, V domains shown)
VH: B4 VH with G33A, V34I, I35S, Y101W
VL: B4 VL with Y32W
B29: P24E743 (antibody, human IgG4 S228P, kappa, V domains shown)
VH: B4 VH with G33A, V34I, I35S
VL: B4 VL with I29V, Y32W, T51A, N52Y, L89Q, N92G
B30: P24E289 (antibody, human IgG4 S228P, kappa, V domains shown)
VH: B4 VH with S30N, V34I
VL: B4 VL with K24R
B31: P24E883 (antibody, human IgG4 S228P, kappa, V domains shown)
VH: B4 VH with G33A, V34I, I35S
VL: B4 VL with I29V, Y32W, T51A, N52Y, L89Q

Biological target: T1, human PAR-1
Assay: flow cytometry, transfected Expi293F cells
Procedure: Paired heavy and light chains encoded by these sequence pairs were expressed as a full length human IgG4 isotype antibodies and assessed for PAR-2 binding and selectivity by flow cytometry. […] Cells were used for flow cytometric analysis 36-48 hours post-transfection. Use of Nt-PAR-2 as a target allowed antibodies which bound the N-terminal residues of PAR-2 (which comprise the protease-cleavage sites on PAR-2) to be distinguished from antibodies which bound other extracellular sites on PAR-2, such as the PAR-2-activating ligand-binding site(s). Expi293F cells, transiently expressing one of each of the different target proteins were labelled with different intensities of a single fluorphor Encoder dye (Intellicyt) for 10 mins at either 1 in 250 dilution for high intensity and/or 1 in 1500 dilution for moderate intensity, enabling simultaneous analysis of multiple cell populations. After washing the cells were then mixed in an equal ratio with the unlabeled cell type and analyzed for antibody binding.
The cells were plated in 96 well plates at 2×10⁵ cells/well. Following a wash step using Phosphate buffered saline (PBS), the primary antibody (anti-PAR-2 antibody) was added at a concentration of 10 μg/mL in 50 μL of FACS buffer (0.5% w/v BSA in PBS) to each well and incubated for 10-15 mins. Following a wash step, secondary antibody (anti-human Fc-FITC) was added to the wells at 1:200 dilution in 50 μL for 10-15 mins. Following a washing step, the cells were re-suspended in fluorescence-activated cell sorting (FACS) buffer. The flow cytometry analysis was performed on an Intellicyt iQue screener. Gates were drawn around the different intensities of encoder dye-positive cells and these populations were analyzed separately from each other and the unlabeled cells for binding by the primary antibody.

Row | binding result | Binder
1 | no binding (tested: 10 µg/mL) | B1
2 | no binding (tested: 10 µg/mL) | B2
3 | no binding (tested: 10 µg/mL) | B3

Biological target: T2, human PAR-2
Assay: cell-based or functional assay

Row | PAR-2 β-arrestin cell based assay IC50, 2 µM SLIGKV | Binder
4 | 2.5 nM | B4
5 | 2.3 nM | B5
6 | 2.1 nM | B6
7 | 1.4 nM | B7
8 | 2 nM | B8
9 | 1.48 nM | B9
10 | 1.6 nM | B10
11 | 1.9 nM | B11
12 | 3 nM | B12
13 | 2.2 nM | B13
14 | 2.9 nM | B14
15 | 3.6 nM | B15
16 | 2.8 nM | B16
17 | 2.6 nM | B17
18 | 2.2 nM | B18
19 | 0.97 nM | B19
20 | 3.1 nM | B20
21 | 1.47 nM | B21
22 | 0.89 nM | B22
23 | 2.4 nM | B23
24 | 2.5 nM | B24
25 | 0.94 nM | B25
26 | 2 nM | B26
27 | 1.2 nM | B27
28 | 1.3 nM | B28
29 | 1.51 nM | B29
30 | 2.6 nM | B30
31 | 1.21 nM | B31

Biological target: T2, human PAR-2
Assay: cell-based or functional assay
Remark: another data set of the same source

Row | IC50, PAR-2 β-arrestin cell assay | Binder
32 | 100 nM | B1
33 | 20.1 nM | B2
34 | 123 nM | B3
